In the RNAGym collection of RNA variant scans (doi:10.7554/elife.80360) one finds self-cleavage data, which are given here for 39 variants.

B1: CPEB3 Ribozyme (parent)
chain: GGGGGCCACAGCAGAAGCGUUCACGUCGCGGCCCCUGUCAGAUUCUGGUGAAUCUGCGAAUUCUGCUGU

This series covers variants of B1. The series is described as follows: self-cleavage, relative activity (ratio to wild type); higher = more cleavage; co-transcriptional.
For the variant GGGGGCCACAGCAGAAGCGUUCCCGUCGCGGCCCCUGUCAGAUUCUGGUGAAUAUGCGAAUUCUGCUGU [A23C C54A], the self-cleavage stood at 0.849.

Regarding GGGGGCCACAGCAGAAGCGUUCCCGUCGCGGCCCCUGUCAGAUUCUGGUGAAUCUGCGAAUUCUGCUAU [A23C G68A], the self-cleavage stood at 0.969.

For GGGGGCCACAGCAGAAGCGUUCCCGUCGCGGUCCCUGUCAGAUUCUGGUGAAUCUGCGAAUUCUGCUGU [A23C C32U], the self-cleavage was 0.85.

Take GGGGGCCACAGCAGAAGCGUUCCCGUCGCGGCCCCUGUCAGAUUCUGAUGAAUCUGCGAAUUCUGCUGU [A23C G48A]: the self-cleavage worked out at 0.978.

In the case of GGGGGCCACAGCAGAAGCGUUCCCGUCGCGGCCCCUGUCAGAUUCUGUUGAAUCUGCGAAUUCUGCUGU [A23C G48U], the self-cleavage was found to be 0.942.

Take GGGGGCCACAGCAGAAGCGUUCCCGUCGCGGCCCCUGUCAGACUCUGGUGAAUCUGCGAAUUCUGCUGU [A23C U43C]: the self-cleavage was 0.89.

GGGGGCCACAGCAGAAGCGUUCCCGUGGCGGCCCCUGUCAGAUUCUGGUGAAUCUGCGAAUUCUGCUGU [A23C C27G]: the self-cleavage came to 0.228.

Consider GGGGGCCACAGCAGAAGCGUUCCCGUCGCGGCCCCUGUUAGAUUCUGGUGAAUCUGCGAAUUCUGCUGU [A23C C39U], for which the self-cleavage came out at 0.796.

As to GGGGGCCACAGCAGAAGCGUUUACGUCGCGGCCCGUGUCAGAUUCUGGUGAAUCUGCGAAUUCUGCUGU [C22U C35G], the self-cleavage stood at 0.165.

GGGGGCCACAGCAGAAGCGUUUACGCCGCGGCCCCUGUCAGAUUCUGGUGAAUCUGCGAAUUCUGCUGU [C22U U26C]: the self-cleavage came out at 0.279.

Turning to GGGGGCCACAGCAGAAGCGUUUACGGCGCGGCCCCUGUCAGAUUCUGGUGAAUCUGCGAAUUCUGCUGU [C22U U26G], the self-cleavage was 0.207.

As for GGGGGCCACAGCAGAAGCGUUUACGUCGCGGCCCCUGUCAGAUUCUGGUGAAUCUGCGAAUUCUGCGGU [C22U U67G], the self-cleavage was found to be 0.332.

In the case of GGGGGCCACAGCAGAAGCGUUUACGUCGCGGCCCCUGUCAGAUUCUGGUGAAUCUGCGAAUUCUGCCGU [C22U U67C], the self-cleavage is 0.365.

In the case of GGGGGCCACAGCAGAAGCGUUUACGUCGCGGCCCCUUUCAGAUUCUGGUGAAUCUGCGAAUUCUGCUGU [C22U G37U], the self-cleavage stood at 0.181.

For GGGGGCCACAGCAGAAGCGUUUACGUCGCGGCCCCUGUCAGAUUCUGGUGAUUCUGCGAAUUCUGCUGU [C22U A52U], the self-cleavage was 0.315.

As to GGGGGCCACAGCAGAAGCGUUCCCGUCGCGGCCCCUGUCAGAUUCUGGUGAAUCUGCUAAUUCUGCUGU [A23C G58U], the self-cleavage came out at 0.929.

Turning to GGGGGCCACAGCAGAAGCGUUCCCGUCGCGGCCCCUGUCAGAUUCUGGUGAAUCUGCAAAUUCUGCUGU [A23C G58A], the self-cleavage is 0.89.

For GGGGGCCACAGCAGAAGCGUUCCCGUCGCGGCCCCUGUCAGUUUCUGGUGAAUCUGCGAAUUCUGCUGU [A23C A42U], the self-cleavage worked out at 0.869.

With GGGGGCCACAGCAGAAGCGUUCCCGUCGCGGCCCCUGUCAGCUUCUGGUGAAUCUGCGAAUUCUGCUGU [A23C A42C], the self-cleavage amounted to 0.92.

With GGGGGCCACAGCAGAAGCGUUCCCGUCGCGGCCCCUGUCAGAUUCUGGUGAAACUGCGAAUUCUGCUGU [A23C U53A], the self-cleavage was 0.89.

As for GGGGGCCACAGCAGAAGCGUUCCCGACGCGGCCCCUGUCAGAUUCUGGUGAAUCUGCGAAUUCUGCUGU [A23C U26A], the self-cleavage was determined as 0.628.

For the variant GGGGGCCACAGCAGAAGCGUUCCCGCCGCGGCCCCUGUCAGAUUCUGGUGAAUCUGCGAAUUCUGCUGU [A23C U26C], the self-cleavage amounted to 0.966.

As to GGGGGCCACAGCAGAAGCGUUCCCGUCGCGGCCCCUGUCAGAUUCUGGUGAAUCUUCGAAUUCUGCUGU [A23C G56U], the self-cleavage is 0.88.

As to GGGGGCCACAGCAGAAGCGUUCCCGUCGCGGCCCCUGUCAGAUUCCGGUGAAUCUGCGAAUUCUGCUGU [A23C U46C], the self-cleavage was found to be 0.959.

In the case of GGGGGCCACAGCAGAAGCGUUCCCGUCGCGGCCCCUGUCAGAUUCGGGUGAAUCUGCGAAUUCUGCUGU [A23C U46G], the self-cleavage worked out at 0.962.

Turning to GGGGGCCACAGCAGAAGCGUUUACGUCGCGGCCCCUGUCAGAUUCUGGUGAAUCUGCGAAUUCGGCUGU [C22U U64G], the self-cleavage was 0.237.

Regarding GGGGGCCACAGCAGAAGCGUUUACGUCGCGGCCCCUGUCAGAUUCUGGUGAAUCUGCGAAUUCCGCUGU [C22U U64C], the self-cleavage was determined as 0.279.

On to GGGGGCCACAGCAGAAGCGUUCCCGUCUCGGCCCCUGUCAGAUUCUGGUGAAUCUGCGAAUUCUGCUGU [A23C G28U], for which the self-cleavage came out at 0.2.

With GGGGGCCACAGCAGAAGCGUUCCCGUCGCGGCCCCUGCCAGAUUCUGGUGAAUCUGCGAAUUCUGCUGU [A23C U38C], the self-cleavage was 0.85.

Take GGGGGCCACAGCAGAAGCGUUCCCGUCGCGGCCCCUGACAGAUUCUGGUGAAUCUGCGAAUUCUGCUGU [A23C U38A]: the self-cleavage worked out at 0.75.

Turning to GGGGGCCACAGCAGAAGCGUUUACGUCGCGGCCCCUGUCAGAUUCGGGUGAAUCUGCGAAUUCUGCUGU [C22U U46G], the self-cleavage was 0.274.

In the case of GGGGGCCACAGCAGAAGCGUUUACGUCGCGGCCCCUGUCAGAUUCCGGUGAAUCUGCGAAUUCUGCUGU [C22U U46C], the self-cleavage worked out at 0.369.

In the case of GGGGGCCACAGCAGAAGCGUUUACGUCGCGGCCCCUGUCAGAUUCUGGUGAAUUUGCGAAUUCUGCUGU [C22U C54U], the self-cleavage came out at 0.349.

Turning to GGGGGCCACAGCAGAAGCGUUUACGUCGCGGCCCCUGUCAGAUUCUGGUGAAUGUGCGAAUUCUGCUGU [C22U C54G], the self-cleavage came out at 0.285.

Regarding GGGGGCCACAGCAGAAGCGUUCCCGUCGCGGCCCCUGUCAGAUUCUGGUGAAUCUGCGAUUUCUGCUGU [A23C A60U], the self-cleavage came to 0.516.

GGGGGCCACAGCAGAAGCGUUCCCGUCGCGGCCCCUGUCACAUUCUGGUGAAUCUGCGAAUUCUGCUGU [A23C G41C]: the self-cleavage stood at 0.725.

For the variant GGGGGCCACAGCAGAAGCGUUCCCGUCGCGGCCCCUGUCAAAUUCUGGUGAAUCUGCGAAUUCUGCUGU [A23C G41A], the self-cleavage stood at 0.809.

Consider GGGGGCCACAGCAGAAGCGUUUACGUCGCGGCCCCUGUUAGAUUCUGGUGAAUCUGCGAAUUCUGCUGU [C22U C39U], for which the self-cleavage is 0.179.

Regarding GGGGGCCACAGCAGAAGCGUUUACGUCGCGGCCCCUGUCAGAUUCUGGAGAAUCUGCGAAUUCUGCUGU [C22U U49A], the self-cleavage was found to be 0.297.
